The test system of data set [1] is HeLa Kyoto. The data set is described as follows: solubility change mitosis vs G1/S (difference of NP-40 vs SDS log2 ratios) (log2 ratio difference); higher = more soluble in mitosis.
The subject of data set [2] is HeLa Kyoto. The data set is described as follows: solubility in G1/S (NP-40 vs SDS abundance) (log2 ratio); higher = more soluble. Particulars: cell cycle stage: G1/S.
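Wherever solubility change mitosis vs G1/S (difference of NP-40 vs SDS log2 ratios) is given: synchronized HeLa Kyoto cells (double thymidine block for G1/S, nocodazole release for mitosis), protein amounts in NP-40 versus SDS lysates quantified by mass spectrometry, three biological replicates.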
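Wherever solubility in G1/S (NP-40 vs SDS abundance) is given: HeLa Kyoto cells arrested at G1/S by double thymidine block, proteins quantified by TMT10plex mass spectrometry in mild NP-40 versus SDS extracts, three biological replicates.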

For the substance “MCTKMEQPFYHDDSYTATGYGRAPGGLSLHDYKLLKPSLAVNLADPYRSLKAPGARGPGPEGGGGGSYFSGQGSDTGASLKLASSELERLIVPNSNGVITTTPTPPGQYFYPRGGGSGGGAGGAGGGVTEEQEGFADGFVKALDDLHKMNHVTPPNVSLGATGGPPAGPGGVYAGPEPPPVYTNLSSYSPASASSGGAGAAVGTGSSYPTTTISYLPHAPPFAGGHPAQLGLGRGASTFKEEPQTVPEARSRDATPPVSPINMEDQERIKVERKRLRNRLAATKCRKRKLERIARLEDKVKTLKAENAGLSSTAGLLREQVAQLKQKVMTHVSNGCQLLLGVKGHAF [JUNB]”, the “solubility change mitosis (log2)” value in data set [1] came to 0.346. Moreover, the “solubility in G1/S (log2)” value in data set [2] came out at 0.0721.

Consider “MAEKFDHLEEHLEKFVENIRQLGIIVSDFQPSSQAGLNQKLNFIVTGLQDIDKCRQQLHDITVPLEVFEYIDQGRNPQLYTKECLERALAKNEQVKGKIDTMKKFKSLLIQELSKVFPEDMAKYRSIRGEDHPPS [MED10]”, for which the “solubility change mitosis (log2)” value in data set [1] came to 0.446. The “solubility in G1/S (log2)” value in data set [2] is -0.142.

“MASKKVCIVGSGNWGSAIAKIVGGNAAQLAQFDPRVTMWVFEEDIGGKKLTEIINTQHENVKYLPGHKLPPNVVAVPDVVQAAEDADILIFVVPHQFIGKICDQLKGHLKANATGISLIKGVDEGPNGLKLISEVIGERLGIPMSVLMGANIASEVADEKFCETTIGCKDPAQGQLLKELMQTPNFRITVVQEVDTVEICGALKNVVAVGAGFCDGLGFGDNTKAAVIRLGLMEMIAFAKLFCSGPVSSATFLESCGVADLITTCYGGRNRKVAEAFARTGKSIEQLEKELLNGQKLQGPETARELYSILQHKGLVDKFPLFMAVYKVCYEGQPVGEFIHCLQNHPEHM [GPD1]”: the “solubility change mitosis (log2)” value in data set [1] came to 0.00396. The “solubility in G1/S (log2)” value in data set [2] is 0.278.

Take DOPEY2: the “solubility change mitosis (log2)” value in data set [1] is -0.106. Also, the “solubility in G1/S (log2)” value in data set [2] is -0.255.

As for DNAJB5, in data set [1], the “solubility change mitosis (log2)” value was found to be 0.00156. Moreover, the “solubility in G1/S (log2)” value in data set [2] was found to be 0.153.

In the case of “MKQLPAATVRLLSSSQIITSVVSVVKELIENSLDAGATSVDVKLENYGFDKIEVRDNGEGIKAVDAPVMAMKYYTSKINSHEDLENLTTYGFRGEALGSICCIAEVLITTRTAADNFSTQYVLDGSGHILSQKPSHLGQGTTVTALRLFKNLPVRKQFYSTAKKCKDEIKKIQDLLMSFGILKPDLRIVFVHNKAVIWQKSRVSDHKMALMSVLGTAVMNNMESFQYHSEESQIYLSGFLPKCDADHSFTSLSTPERSFIFINSRPVHQKDILKLIRHHYNLKCLKESTRLYPVFFLKIDVPTADVDVNLTPDKSQVLLQNKESVLIALENLMTTCYGPLPSTNSYENNKTDVSAADIVLSKTAETDVLFNKVESSGKNYSNVDTSVIPFQNDMHNDESGKNTDDCLNHQISIGDFGYGHCSSEISNIDKNTKNAFQDISMSNVSWENSQTEYSKTCFISSVKHTQSENGNKDHIDESGENEEEAGLENSSEISADEWSRGNILKNSVGENIEPVKILVPEKSLPCKVSNNNYPIPEQMNLNEDSCNKKSNVIDNKSGKVTAYDLLSNRVIKKPMSASALFVQDHRPQFLIENPKTSLEDATLQIEELWKTLSEEEKLKYEEKATKDLERYNSQMKRAIEQESQMSLKDGRKKIKPTSAWNLAQKHKLKTSLSNQPKLDELLQSQIEKRRSQNIKMVQIPFSMKNLKINFKKQNKVDLEEKDEPCLIHNLRFPDAWLMTSKTEVMLLNPYRVEEALLFKRLLENHKLPAEPLEKPIMLTESLFNGSHYLDVLYKMTADDQRYSGSTYLSDPRLTANGFKIKLIPGVSITENYLEIEGMANCLPFYGVADLKEILNAILNRNAKEVYECRPRKVISYLEGEAVRLSRQLPMYLSKEDIQDIIYRMKHQFGNEIKECVHGRPFFHHLTYLPETT [PMS1]”, the “solubility change mitosis (log2)” value in data set [1] was -0.108. For the same substance, in data set [2], the “solubility in G1/S (log2)” value was -0.0908.

As for “MTQQPQDDFDRSVEDAQAWMKAVQDQLQVNDNTQGPRAALEARLWETEKICQLEPEGRVRVDLVLRMAEALLACCPGDQKPGILARLKDIKAQWEETVTYMTHCHSRIEWVWLHWSEYLLARDEFYRWFQKMMVTLEPHIELQLGLKEKQWQLSHAQVLLHNVDNQAVLLDRLLEEAASLFNRIGDPSVDEDAQKRMKAEYDAVKAKAQKRVDLLEQVAREHEEYQAGVDEFQLWLKAVVEKVNGCLGRNCKLPITQRLSTLQDIAKDFPRGEESLETLEEQSAGVIRNTSPLGAEKITGELEEMRKVLEKLRALWEEEEERLRGLLRSRGAWEQQIKQLEAELSEFRMVLQRLAQEGLQPAAKAGTEDELVAHWRRYSATRAALASEEPRVDRLQAQLKELIVFPHNLKPLSDSVIATIQEYQSLKVKSARLRNAAAVELWQHFQRPLQDLQLWKALAQRLLEVTASLPDLPSLHTFLPQIEAALMESSRLKELLTMLQLKKDLLIGIFGQERATALLEQVAGSMRDRDLLHNSLLQRKSKLQSLLAQHKDFGAAFEPLQRKLLDLQVRVQAEKGLQRDLPGKQAQLSRLQGLQEEGLDLGAQMEAARPLVQENPNHQHKMDQLSSDFQALQRSLEDLVDRCRQSVQEHCTFSHQLLELRQWIVVTTQKLEAHRGEAGPGDAESQEAEFERLVAEFPEKEAQLSLVEAQGWLVMEKSSPEGAAVVQEELRELAESWRALRLLEESLLSLIRNWHLQRMEVDSGKKMVFTNNIPKSGFLINPMDPIPRHRRRANLLQEEEGSHEDFSQLLRNFGQWLQVENSKLVRIIAMRTSTAEDLRTRKSKLQELEARVPEGQHLFENLLRLGPARGTSDELEDLRYQWMLYKSKLKDSGHLLTQSSPGEPTGFQKTRRWRGLGSLFRRACCVALPLQLLLLLFLLLLFLLPIREEDRSCTLANNFARSFTLMLRYNGPPPT [SYNE3]”, the “solubility change mitosis (log2)” value in data set [1] came to 0.336. Moreover, the “solubility in G1/S (log2)” value in data set [2] was -0.89.

With “MAQAHRTPQPRAAPSQPRVFKLVLLGSGSVGKSSLALRYVKNDFKSILPTVGCAFFTKVVDVGATSLKLEIWDTAGQEKYHSVCHLYFRGANAALLVYDITRKDSFLKAQQWLKDLEEELHPGEVLVMLVGNKTDLSQEREVTFQEGKEFADSQKLLFMETSAKLNHQVSEVFNTVAQELLQRSDEEGQALRGDAAVALNKGPARQAKCCAH [RAB17]”, in data set [1], the “solubility change mitosis (log2)” value is -0.134. Moreover, in data set [2], the “solubility in G1/S (log2)” value is 0.138.

For the substance “MGDPGSEIIESVPPAGPEASESTTDENEDDIQFVSEGPLRPVLEYIDLVSSDDEEPSTSYTDENIKRKDHIDYQKDKVALTLARLARHVEVEKQQKEEKNRAFREKIDFQHAHGLQELEFIRGHSDTEAARLCVDQWLKMPGLKTGTINCGTKSSFRRGGHTWVSGKPILCPIMHCNKEFDNGHLLLGHLKRFDHSPCDPTITLHGPFFSSFACVVCYKKFVTQQQYRDHLFDKEATDDGHNNNLLPQIIQCFACPNCFLLFSRKEECSKHMSGKNHFHQSFKLGDNKGIAHPISFPSFAKKLLISLCKDVPFQVKCVACHKTLRSHMELTAHFRVHCRNAGPVAVAEKSITQVAEKFILRGYCPDCNQVFVDETSTQNHKQNSGHKVRVINSVEESVLLYCHSSEGNKDPSSDLHLLLDQSKFSSLKRTMSIKESSSLECIAIPKKKMNLKDKSHEGVACVQKEKSVVKTWFCECNQRFPSEDAVEKHVFSANTMGYKCVVCGKVCDDSGVIRLHMSRIHGGAHLNNFLFWCRTCKKELTRKDTIMAHVTEFHNGHRYFYEMDEVEGETLPSSSTTLDNLTANKPSSAITVIDHSPANSSPRGKWQCRICEDMFDSQEYVKQHCMSLASHKFHRYSCAHCRKPFHKIETLYRHCQDEHDNEIKIKYFCGLCDLIFNVEEAFLSHYEEHHSIDYVFVSEKTETSIKTEDDFPVIETSNQLTCGCRESYICKVNRKEDYSRCLQIMLDKGKLWFRCSLCSATAQNLTDMNTHIHQVHKEKSDEEEQQYVIKCGTCTKAFHDPESAQQHFHRKHCFLQKPSVAHFGSEKSNLYKFTASASHTERKLKQAINYSKSLDMEKGVENDLSYQNIEEEIVELPDLDYLRTMTHIVFVDFDNWSNFFGHLPGHLNQGTFIWGFQGGNTNWKPPLNCKIYNYLNRIGCFFLHPRCSKRKDAADFAICMHAGRLDEQLPKQIPFTILSGDQGFLELENQFKKTQRPAHILNPHHLEGDMMCALLNSISDTTKECDSDDNMGAKNTSIGEEFISTEDVELEEAIRRSLEEM [ZNF451]”, the “solubility change mitosis (log2)” value in data set [1] is -0.197. In data set [2], the “solubility in G1/S (log2)” value is -0.657.

For “MSYCRQEGKDRIIFVTKEDHETPSSAELVADDPNDPYEEHGLILPNGNINWNCPCLGGMASGPCGEQFKSAFSCFHYSTEEIKGSDCVDQFRAMQECMQKYPDLYPQEDEDEEEEREKKPAEQAEETAPIEATATKEEEGSS [CHCHD4]”, in data set [1], the “solubility change mitosis (log2)” value is -0.667. For the same substance, the “solubility in G1/S (log2)” value in data set [2] is -0.518.

As for “MAGYLKLVCVSFQRQGFHTVGSRCKNRTGAEHLWLTRHLRDPFVKAAKVESYRCRSAFKLLEVNERHQILRPGLRVLDCGAAPGAWSQVAVQKVNAAGTDPSSPVGFVLGVDLLHIFPLEGATFLCPADVTDPRTSQRILEVLPGRRADVILSDMAPNATGFRDLDHDRLISLCLTLLSVTPDILQPGGTFLCKTWAGSQSRRLQRRLTEEFQNVRIIKPEASRKESSEVYFLATQYHGRKGTVKQ [FTSJ2]”, the “solubility change mitosis (log2)” value in data set [1] amounted to 0.0979. Moreover, in data set [2], the “solubility in G1/S (log2)” value stood at 0.00974.

As to “MHARGPHGQLSPALPLASSVLMLLMSTLWLVGAGPGLVLAPELLLDPWQVHRLLTHALGHTALPGLLLSLLLLPTVGWQQECHLGTLRFLHASALLALASGLLAVLLAGLGLSSAAGSCGYMPVHLAMLAGEGHRPRRPRGALPPWLSPWLLLALTPLLSSEPPFLQLLCGLLAGLAYAAGAFRWLEPSERRLQVLQEGVLCRTLAGCWPLRLLATPGSLAELPVTHPAGVRPPIPGPPYVASPDLWSHWEDSALPPPSLRPVQPTWEGSSEAGLDWAGASFSPGTPMWAALDEQMLQEGIQASLLDGPAQEPQSAPWLSKSSVSSLRLQQLERMGFPTEQAVVALAATGRVEGAVSLLVGGQVGTETLVTHGKGGPAHSEGPGPP [RHBDD3]”, the “solubility change mitosis (log2)” value in data set [1] is 0.0168. The “solubility in G1/S (log2)” value in data set [2] was -0.0767.

“MFRLLSWSLGRGFLRAAGRRCRGCSARLLPGLAGGPGPEVQVPPSRVAPHGRGPGLLPLLAALAWFSRPAAAEEEEQQGADGAAAEDGADEAEAEIIQLLKRAKLSIMKDEPEEAELILHDALRLAYQTDNKKAITYTYDLMANLAFIRGQLENAEQLFKATMSYLLGGGMKQEDNAIIEISLKLASIYAAQNRQEFAVAGYEFCISTLEEKIEREKELAEDIMSVEEKANTHLLLGMCLDACARYLLFSKQPSQAQRMYEKALQISEEIQGERHPQTIVLMSDLATTLDAQGRFDEAYIYMQRASDLARQINHPELHMVLSNLAAVLMHRERYTQAKEIYQEALKQAKLKKDEISVQHIREELAELSKKSRPLTNSVKL [TTC19]”: the “solubility change mitosis (log2)” value in data set [1] was determined as 0.00456. Further, the “solubility in G1/S (log2)” value in data set [2] turned out to be 0.331.

The values are drawn from the supplement of paper PMC5998384.
